Assay results reported in the Human Domainome abundance scans (Beltran et al. 2025).
± gives the uncertainty stated by the source.

B1: POU domain, class 4, transcription factor 3, residues 185 to 256; numbered along this chain, Q15319 (parent)
chain: RELEAFAERFKQRRIKLGVTQADVGAALANLKIPGVGSLSQSTICRFESLTLSHNNMIALKPVLQAWLEEAE

Variants of: B1
Assay: abundance fitness (aPCA) (normalised: wild type 0, dead -1); higher = more abundant; growth selection in yeast, the domain comes from the species named
Details: Homo sapiens
With RELEAFAERFKQRRIKLGVTQADVGAALANLWIPGVGSLSQSTICRFESLTLSHNNMIALKPVLQAWLEEAE [K32W] the abundance fitness was -0.162 ± 0.052.
Variant RELEAFAERFKQRRIKLGVTQADVGAALANLMIPGVGSLSQSTICRFESLTLSHNNMIALKPVLQAWLEEAE [K32M] has an abundance fitness of -0.048 ± 0.061.
Variant RELEAFAERFKQRRIKLGVTQADVGAALANLEIPGVGSLSQSTICRFESLTLSHNNMIALKPVLQAWLEEAE [K32E] has an abundance fitness of 0.034 ± 0.067.
For RELEAFAERFKQRRIKLGVTQADVGAALANLGIPGVGSLSQSTICRFESLTLSHNNMIALKPVLQAWLEEAE [K32G], the abundance fitness was -0.169 ± 0.039.
For RELEAFAERFKQRRIKLGVTQADVGAALANLLIPGVGSLSQSTICRFESLTLSHNNMIALKPVLQAWLEEAE [K32L], the abundance fitness was -0.146 ± 0.03.
With RELEAFAERFKQRRIKLGVTQADVGAALANLDIPGVGSLSQSTICRFESLTLSHNNMIALKPVLQAWLEEAE [K32D] the abundance fitness was -0.076 ± 0.048.
With RELEAFAERFKQRRIKLGVTQADVGAALANLNIPGVGSLSQSTICRFESLTLSHNNMIALKPVLQAWLEEAE [K32N] the abundance fitness was 0.004 ± 0.047.
With RELEAFAERFKQRRIKLGVTQADVGAALANLFIPGVGSLSQSTICRFESLTLSHNNMIALKPVLQAWLEEAE [K32F] the abundance fitness was -0.174 ± 0.037.
RELEAFAERFKQRRIKLGVTQADVGAALANLRIPGVGSLSQSTICRFESLTLSHNNMIALKPVLQAWLEEAE [K32R] gave an abundance fitness of -0.039 ± 0.035.
Variant RELEAFAERFKQRRIKLGVTQADVGAALANLVIPGVGSLSQSTICRFESLTLSHNNMIALKPVLQAWLEEAE [K32V] has an abundance fitness of -0.009 ± 0.031.
Variant RELEAFAERFKQRRIKLGVTQADVGAALANLIIPGVGSLSQSTICRFESLTLSHNNMIALKPVLQAWLEEAE [K32I] has an abundance fitness of -0.049 ± 0.045.
Variant RELEAFAERFKQRRIKLGVTQADVGAALANLQIPGVGSLSQSTICRFESLTLSHNNMIALKPVLQAWLEEAE [K32Q] has an abundance fitness of -0.175 ± 0.065.
With RELEAFAERFKQRRIKLGVTQADVGAALANLSIPGVGSLSQSTICRFESLTLSHNNMIALKPVLQAWLEEAE [K32S] the abundance fitness was -0.031 ± 0.032.
Work on RELEAFAERFKQRRIKLGVTQADVGAALANLAIPGVGSLSQSTICRFESLTLSHNNMIALKPVLQAWLEEAE [K32A] yielded an abundance fitness of -0.056 ± 0.038.
Work on RELEAFAERFKQRRIKLGVTQADVGAALANLYIPGVGSLSQSTICRFESLTLSHNNMIALKPVLQAWLEEAE [K32Y] yielded an abundance fitness of -0.12 ± 0.051.
Work on RELEAFAERFKQRRIKLGVTQADVGAALANLPIPGVGSLSQSTICRFESLTLSHNNMIALKPVLQAWLEEAE [K32P] yielded an abundance fitness of -0.158 ± 0.044.
Variant RELEAFAERFKQRRIKLGVTQADVGAALANLTIPGVGSLSQSTICRFESLTLSHNNMIALKPVLQAWLEEAE [K32T] has an abundance fitness of -0.088 ± 0.051.
With RELEAFAERFKQRRIKLGVTQADVGAALANLHIPGVGSLSQSTICRFESLTLSHNNMIALKPVLQAWLEEAE [K32H] the abundance fitness was -0.113 ± 0.068.
In the case of RELEAFAERFKQRRIKLGVTQADVGAALANVKIPGVGSLSQSTICRFESLTLSHNNMIALKPVLQAWLEEAE [L31V], the abundance fitness is reported as 0.086 ± 0.12.
In the case of RELEAFAERFKQRRIKLGVTQADVGAALANSKIPGVGSLSQSTICRFESLTLSHNNMIALKPVLQAWLEEAE [L31S], the abundance fitness is reported as -0.094 ± 0.16.
With RELEAFAERFKQRRIKLGVTQADVGAALANYKIPGVGSLSQSTICRFESLTLSHNNMIALKPVLQAWLEEAE [L31Y] the abundance fitness was -0.228 ± 0.29.
Variant RELEAFAERFKQRRIKLGVTQADVGAALANWKIPGVGSLSQSTICRFESLTLSHNNMIALKPVLQAWLEEAE [L31W] has an abundance fitness of -0.008 ± 0.2.
Variant RELEAFAERFKQRRIKLGVTQADVGAALANTKIPGVGSLSQSTICRFESLTLSHNNMIALKPVLQAWLEEAE [L31T] has an abundance fitness of -0.094 ± 0.48.
RELEAFAERFKQRRIKLGVTQADVGAALANLKTPGVGSLSQSTICRFESLTLSHNNMIALKPVLQAWLEEAE [I33T] showed an abundance fitness of -0.197 ± 0.14.
With RELEAFAERFKQRRIKLGVTQADVGAALANLKKPGVGSLSQSTICRFESLTLSHNNMIALKPVLQAWLEEAE [I33K] the abundance fitness was -0.391 ± 0.11.
For RELEAFAERFKQRRIKLGVTQADVGAALANLKMPGVGSLSQSTICRFESLTLSHNNMIALKPVLQAWLEEAE [I33M], the abundance fitness was -0.283 ± 0.1.
Work on RELEAFAERFKQRRIKLGVTQADVGAALANLKLPGVGSLSQSTICRFESLTLSHNNMIALKPVLQAWLEEAE [I33L] yielded an abundance fitness of 0.062 ± 0.045.
Work on RELEAFAERFKQRRIKLGVTQADVGAALANLKPPGVGSLSQSTICRFESLTLSHNNMIALKPVLQAWLEEAE [I33P] yielded an abundance fitness of -0.139 ± 0.13.
RELEAFAERFKQRRIKLGVTQADVGAALANLKNPGVGSLSQSTICRFESLTLSHNNMIALKPVLQAWLEEAE [I33N] gave an abundance fitness of -0.341 ± 0.16.
Variant RELEAFAERFKQRRIKLGVTQADVGAALANLKVPGVGSLSQSTICRFESLTLSHNNMIALKPVLQAWLEEAE [I33V] has an abundance fitness of -0.515 ± 0.32.
RELEAFAERFKQRRIKLGVTQADVGAALANLKSPGVGSLSQSTICRFESLTLSHNNMIALKPVLQAWLEEAE [I33S] showed an abundance fitness of -0.764 ± 0.19.
With RELEAFAERFKQRRIKLGVTQADVGAALANLKFPGVGSLSQSTICRFESLTLSHNNMIALKPVLQAWLEEAE [I33F] the abundance fitness was -0.223 ± 0.088.
For RELEAFAERFKQRRIKLGVTQADVGAALANLKYPGVGSLSQSTICRFESLTLSHNNMIALKPVLQAWLEEAE [I33Y], the abundance fitness was -0.105 ± 0.12.
In the case of RELEAFAERFKQRRIKLGVTQADVGAALANLKIGGVGSLSQSTICRFESLTLSHNNMIALKPVLQAWLEEAE [P34G], the abundance fitness is reported as -0.313 ± 0.33.
RELEAFAERFKQRRIKLGVTQADVGAALANLKIFGVGSLSQSTICRFESLTLSHNNMIALKPVLQAWLEEAE [P34F] gave an abundance fitness of -0.474 ± 0.1.
Variant RELEAFAERFKQRRIKLGVTQADVGAALANLKIIGVGSLSQSTICRFESLTLSHNNMIALKPVLQAWLEEAE [P34I] has an abundance fitness of -0.419 ± 0.32.
In the case of RELEAFAERFKQRRIKLGVTQADVGAALANLKICGVGSLSQSTICRFESLTLSHNNMIALKPVLQAWLEEAE [P34C], the abundance fitness is reported as -0.137 ± 0.16.
For RELEAFAERFKQRRIKLGVTQADVGAALANLKIAGVGSLSQSTICRFESLTLSHNNMIALKPVLQAWLEEAE [P34A], the abundance fitness was 0.029 ± 0.15.
